Results as given in patent US6106844A, “Immunomodulatory peptides of vespid antigen 5” (The Rockfeller University, priority 1998, dated 2000).

What was measured:
r-Dol m 5.02 = molecular target: T1, r-Dol m 5.02 (Dolichovespula maculata, UniProt P10737); assay: Antibody response by direct ELISA of mice immunized with recombinant white faced hornet Ag5, wells coated with r-Dol m 5.02; type: in vivo; details: for Half maximal Ab titer r-Dol m 5.02: week five sera after three i.p. immunizations with rDol m 5.02 and alum; for antibody responder status: alum as adjuvant
T1 construct: made in house
T1 sequence (P10737 11-215): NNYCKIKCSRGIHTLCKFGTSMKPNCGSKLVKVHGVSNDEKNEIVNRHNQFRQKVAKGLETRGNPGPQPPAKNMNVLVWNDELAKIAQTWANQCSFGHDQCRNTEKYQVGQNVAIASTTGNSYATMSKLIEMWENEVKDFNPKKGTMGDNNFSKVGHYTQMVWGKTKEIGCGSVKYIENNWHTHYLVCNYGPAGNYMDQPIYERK
Experimental: Antibody response in mice of different haplotypes to recombinant hornet Ag5. Five strains of mice were immunized with recombinant (r) white faced hornet Ag5 and alum as adjuvant. […] The antibody titers (the reciprocal of the dilution yielding 50% of maximum signal extrapolated from ELISA curves in wells coated with r-Dol m 5.02 or n-Dol m 5.01) of these sera for n-(natural) and r-Ag5 are given in Table 3.
*Sera are from week five bleeding after three intraperitoneal
immunizations with 0.2 ml of 10 μg/ml rDol m 5.02 and alum (5 μg/ml
in 0.05 m sodium phosphate buffer, pH 6.2, on weeks 0, 2, and 4.

[1] = tested on: Ag5 specific spleen cells from BALB/c mice; assay: In vitro proliferation assay, spleen cells of Ag5-immunized BALB/c mice; type: cell-based; details: spleen cells from mice immunized with rAg5; blank 3970 cpm
Experimental: (§1) FIG. 4. Stimulation index profile of BALB/c mice spleens after 4 immunizations with natural (n)-Ag5. In vitro proliferation assays were performed with peptides at three concentrations: 1×10^-5 M (open bar), 1.25×10^-6 M ("uphill" hatch), and 1.56×10^-7 M ("downhill" hatch). The corresponding concentrations of recombinant antigen 5 control were 1.0×10^-6 M, 1.25×10^-7, and 1.56×10^-8 M. The blank was 2200 cpm.
as §1, with “5.” for “4.”, “recombinant (r)-Ag5.” for “natural (n)-Ag5.”, “Antigen” for “antigen”, “5” for “5 control”, “4700” for “2200”
FIG. 6. […] In vitro proliferation assays were performed with peptides at three concentrations: 1×10^-5 M (open bar), 1.25×10^-6 M ("uphill" hatch), and 1.56×10^-7 M ("downhill" hatch). The corresponding concentrations of recombinant Antigen 5 were 1.0×10^-6 M, 1.25×10^-7, and 1.56×10^-8 M. […]
The peptides of the invention can be tested in a proliferation assay for T cell responses. Generally, lymphocytes from a sensitized host are obtained. The host can be a mouse that has been immunized with a vespid venom antigen 5, or with a crossreactive protein, such as testes specific protein. Using techniques that are well known in the art, T lymphocyte response to the peptide can be measured in vitro. In a specific embodiment, infra, T cell responses are detected by measuring incorporation of ^3 H-thymidine, which increases with DNA synthesis associated with proliferation. Cell proliferation can also be detected using an MTT assay [Mossman, J. Immunol. Methods, 65:55-63,(1983); Niks and Otto, J. Immunol. Methods, 130:140-151 (1990)]. Alternatively, lymphokine production assays can be practiced according to the present invention. In one embodiment, lymphokine production can be assayed using immunological or co-stimulation assays [see, e.g., Fehlner et al., J. Immunol., 146:799 (1991)] or using the ELISPOT technique [Czerkinsky, et al., J. Immunol. Methods, 110:29 (1988)]. Alternatively, mRNA for lymphokines can be detected, e.g., by amplification [see Brenner, et al., Biotechniques, 7:1096 (1989)] or in situ hybridization [see, e.g., Kasaian and Biron, J. Immunol., 142:1287 (1989)]. Of particular interest are those individuals whose T cells produce lymphokines associated with IgE isotype switch events, e.g., IL-4 and IL-5 [Purkeson and Isakson, J. Exp. Med., 175:973-982 (1992)]. Also of interest are the peptide fragments of the vespid venom antigen 5 that contain epitopes recognized by T cells involved in IgE switch events. […]

[2] = tested on: r-Ag5 specific spleen cells from P/J mice; assay: In vitro proliferation assay, spleen cells of r-Ag5-immunized P/J mice; type: cell-based; details: spleen cells from mice immunized 5 times with rAg5; blank 1730 cpm
Experimental: FIG. 12. Stimulation index profile of P/J mice spleens after 5 immunizations with r-Ag5. In vitro proliferation assays were performed with peptides at three concentrations: 1×10^-5 M (open bar), 1.25×10^-6 M ("uphill" hatch), and 1.56×10^-7 M ("downhill" hatch). The corresponding concentrations of recombinant Antigen 5 were 1.0 ×10^-6 M, 1.25×10^-7, and 1.56×10^-8 M. The blank was 1730 cpm.
The peptides of the invention can be tested in a proliferation assay for T cell responses. Generally, lymphocytes from a sensitized host are obtained. The host can be a mouse that has been immunized with a vespid venom antigen 5, or with a crossreactive protein, such as testes specific protein. Using techniques that are well known in the art, T lymphocyte response to the peptide can be measured in vitro. In a specific embodiment, infra, T cell responses are detected by measuring incorporation of ^3 H-thymidine, which increases with DNA synthesis associated with proliferation. Cell proliferation can also be detected using an MTT assay [Mossman, J. Immunol. Methods, 65:55-63,(1983); Niks and Otto, J. Immunol. Methods, 130:140-151 (1990)]. […] Alternatively, mRNA for lymphokines can be detected, e.g., by amplification [see Brenner, et al., Biotechniques, 7:1096 (1989)] or in situ hybridization [see, e.g., Kasaian and Biron, J. Immunol., 142:1287 (1989)]. […]

B1: r-Ag5: recombinant white faced hornet (Dolichovespula maculata) antigen 5 form 2, Dol m 5.02 (protein)
chain: NNYCKIKCSRGIHTLCKFGTSMKPNCGSKLVKVHGVSNDEKNEIVNRHNQFRQKVAKGLETRGNPGPQPPAKNMNVLVWNDELAKIAQTWANQCSFGHDQCRNTEKYQVGQNVAIASTTGNSYATMSKLIEMWENEVKDFNPKKGTMGDNNFSKVGHYTQMVWGKTKEIGCGSVKYIENNWHTHYLVCNYGPAGNYMDQPIYERK
- Half maximal Ab titer r-Dol m 5.02 (r-Dol m 5.02; ASW/Sn mice (haplotype s)): 1 × 10^5
- Half maximal Ab titer r-Dol m 5.02 (r-Dol m 5.02; BALB/c byj mice (haplotype d)): 8 × 10^4
- antibody responder status (r-Dol m 5.02; BALB/v byj, ASW/Sn, C3H/He, and P/J mice): high antibody responders
- Half maximal Ab titer r-Dol m 5.02 (r-Dol m 5.02; C3H/He mice (haplotype k)): 6 × 10^3
- Half maximal Ab titer r-Dol m 5.02 (r-Dol m 5.02; C57B1/6 mice (haplotype b)): 1 × 10^2
- antibody responder status (r-Dol m 5.02; C57B1/6 mice): poor antibody responder
- Half maximal Ab titer r-Dol m 5.02 (r-Dol m 5.02; P/J mice (haplotype p)): 2 × 10^4
- Stimulation Index BALB/c [1]: 20.9
- Stimulation Index P/J [2]: 20.8
